Values quoted from earlier work in US20230210827A1, “METHODS AND COMPOSITIONS FOR TREATING ANEMIA USING ACTRIIB LIGAND TRAPS AND MTOR INHIBITORS” (Celgene Corporation, priority 2020, published 2023).

T1: GDF-11 (Homo sapiens, UniProt O95390)
T1 sequence (O95390 299-407): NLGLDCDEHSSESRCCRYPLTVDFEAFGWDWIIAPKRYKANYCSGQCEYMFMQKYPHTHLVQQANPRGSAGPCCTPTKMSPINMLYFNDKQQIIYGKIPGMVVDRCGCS


What was measured:
GDF-11 = molecular target: T1, GDF-11; settings: ActRIIB variants; background statements
activin = settings: ActRIIB variants; background statements

Row | affinity for / binding to GDF-11 (GDF-11) | affinity for / binding to activin (activin) | Molecule
1 | retain GDF-11 binding | greatly reduced activin binding | L79E: ActRIIB extracellular domain polypeptide with L79E mutation (protein, UniProt Q13705 19-137, looked up, variant L79E, extracellular domain, ActRIIB extracellular domain polypeptide with L79E mutation) extracellular domain: SGRGEAETRECIYYNANWELERTNQSGLERCEGEQDKRLHCYASWRNSSGTIELVKKGCWEDDFNCYDRQECVATEENPQVYFCCCEGNFCNERFTHLPEAGGPEVTYEPPPTAPTLLT
2 | retain GDF-11 binding | greatly reduced activin binding | L79D: ActRIIB extracellular domain polypeptide with L79D mutation (protein, listed as Homo sapiens, human ActRIIB precursor protein sequence (A64), ActRIIB extracellular domain polypeptide with L79D mutation) MTAPWVALALLWGSLWPGSGRGEAETRECIYYNANWELERTNQSGLERCEGEQDKRLHCYASWANSSGTIELVKKGCWDDDFNCYDRQECVATEENPQVYFCCCEGNFCNERFTHLPEAGGPEVTYEPPPTAPTLLTVLAYSLLPIGGLSLIVLLAFWMYRHRKPPYGHVDIHEDPGPPPPSPLVGLKPLQLLEIKARGRFGCVWKAQLMNDFVAVKIFPLQDKQSWQSEREIFSTPGMKHENLLQFIAAEKRGSNLEVELWLITAFHDKGSLTDYLKGNIITWNELCHVAETMSRGLSYLHEDVPWCRGEGHKPSIAHRDFKSKNVLLKSDLTAVLADFGLAVRFEPGKPPGDTHGQVGTRRYMAPEVLEGAINFQRDAFLRIDMYAMGLVLWELVSRCKAADGPVDEYMLPFEEEIGQHPSLEELQEVVVHKKMRPTIKDHWLKHPGLAQLCVTIEECWDHDAEARLSAGCVEERVSLIRRSVNGTTSDCLVSLVTSVTNVDLPPKESSI
3 | relatively low affinity | relatively low affinity | A64: Fc fusion protein having ActRIIB extracellular sequence with alanine at position 64 of SEQ ID NO:2 (protein, fusion protein comprising a soluble extracellular domain of ActRIIB (A64; SEQ ID NO 3) fused to an Fc domain) SGRGEAETRECIYYNANWELERTNQSGLERCEGEQDKRLHCYASWANSSGTIELVKKGCWLDDFNCYDRQECVATEENPQVYFCCCEGNFCNERFTHLPEAGGPEVTYEPPPTAPTGGGTHTCPPCPAPELLGGPSVFLFPPKPKDTLMISRTPEVTCVVVDVSHEDPEVKFNWYVDGVEVHNAKTKPREEQYNSTYRVVSVLTVLHQDWLNGKEYKCKVSNKALPVPIEKTISKAKGQPREPQVYTLPPSREEMTKNQVSLTCLVKGFYPSDIAVEWESNGQPENNYKTTPPVLDSDGSFFLYSKLTVDKSRWQQGNVFSCSVMHEALHNHYTQKSLSLSPGK
4 | low nanomolar to high picomolar range | low nanomolar to high picomolar range | R64: Fc fusion protein with an arginine at position 64 of the ActRIIB precursor amino acid sequence (protein, fusion protein comprising a soluble extracellular domain of ActRIIB (R64; SEQ ID NO15) fused to an Fc domain) SGRGEAETRECIYYNANWELERTNQSGLERCEGEQDKRLHCYASWRNSSGTIELVKKGCWLDDFNCYDRQECVATEENPQVYFCCCEGNFCNERFTHLPEAGGPEVTYEPPPTAPTGGGTHTCPPCPAPELLGGPSVFLFPPKPKDTLMISRTPEVTCVVVDVSHEDPEVKFNWYVDGVEVHNAKTKPREEQYNSTYRVVSVLTVLHQDWLNGKEYKCKVSNKALPVPIEKTISKAKGQPREPQVYTLPPSREEMTKNQVSLTCLVKGFYPSDIAVEWESNGQPENNYKTTPPVLDSDGSFFLYSKLTVDKSRWQQGNVFSCSVMHEALHNHYTQKSLSLSPGK
5 | reduced binding to GDF-11 and activin | reduced binding to GDF-11 and activin | ActRIIB(20-119)-Fc: ActRIIB-Fc fusion protein containing amino acids 20-119 of SEQ ID NO:14 (SEQ ID NO:18) (protein, human ActRIIB soluble (extracellular), processed polypeptide sequence with the C-terminal 15 aa deleted (aa 20-119 of SEQ ID NO14)) GRGEAETRECIYYNANWELERTNQSGLERCEGEQDKRLHCYASWRNSSGTIELVKKGCWLDDFNCYDRQECVATEENPQVYFCCCEGNFCNERFTHLPEA

Row | Molecule | affinity for / binding to GDF-11 (GDF-11) | affinity for / binding to activin (activin)
6 | L79A: ActRIIB extracellular domain polypeptide with L79A mutation (protein, UniProt Q13705 19-137, looked up, variant L79A, extracellular domain, ActRIIB extracellular domain polypeptide with L79A mutation) extracellular domain: SGRGEAETRECIYYNANWELERTNQSGLERCEGEQDKRLHCYASWRNSSGTIELVKKGCWADDFNCYDRQECVATEENPQVYFCCCEGNFCNERFTHLPEAGGPEVTYEPPPTAPTLLT | reduce GDF-11 binding to a greater extent than activin binding | 
7 | L79P: ActRIIB extracellular domain polypeptide with L79P mutation (protein, UniProt Q13705 19-137, looked up, variant L79P, extracellular domain, ActRIIB extracellular domain polypeptide with L79P mutation) extracellular domain: SGRGEAETRECIYYNANWELERTNQSGLERCEGEQDKRLHCYASWRNSSGTIELVKKGCWPDDFNCYDRQECVATEENPQVYFCCCEGNFCNERFTHLPEAGGPEVTYEPPPTAPTLLT | reduce GDF-11 binding to a greater extent than activin binding | 
